{"source": "patent US20130295106A1", "about": "(ONCOMED PHARMACEUTICALS, published 2013)", "key": {"[1]": {"molecular_target": "T1, human FZD5 expressed on transfected HEK293 cells (human, UniProt Q13467 27-585)", "T1 construct": "See note of m11", "assay": "FACS titration (MFI) on HEK293 cells transfected with full-length FZD and GFP", "method": "(§1) HEK293 cells were co-transfected with a plasmid DNA expressing full-length FZD1, 2, 5, 7 or 8 along with another plasmid expressing the reporter gene GFP used as a transfection marker. Fugene 6 (Roche) was used as transfection reagent according to the manufacturer directions. Transfected cells were incubated twenty-four to forty-eight hours at 37° C. and 5% CO₂. The anti-FZD mAbs were then diluted in a final volume of 50 μl starting with a concentration of 20 μg/ml and serially diluted 4-fold for a total of 8 dilutions. […] The cells were washed and bound anti-Fzd antibodies were detected with a secondary anti-human antibody conjugated to a fluorescent chromophore. Labeled cells were then detected and counted by FACS. The FACS data generated were expressed in Mean Fluorescence Intensity (MFI) units. GraphPad Prism software was used to graph and analyze the data. MFIs were plotted as a function of Ab concentration to establish dose-response curves. A non-linear regression was applied to the numbers to fit the curve and calculate EC50s.\n(§2) The binding profiles for the mAbs 18R5 and 44R24 were determined and compared. 44R24 bound Fzd5 and Fzd8 with good affinity."}, "[2]": {"molecular_target": "T2, human FZD7 expressed on transfected HEK293 cells (human, UniProt O75084 33-574)", "T2 construct": "See note of m11", "assay": "FACS titration (MFI) on HEK293 cells transfected with full-length FZD and GFP", "method": "as §1, §2"}, "[3]": {"molecular_target": "T3, human FZD1 expressed on transfected HEK293 cells (human, UniProt Q9UP38 70-647)", "T3 sequence (Q9UP38 70-647 limits assumed)": "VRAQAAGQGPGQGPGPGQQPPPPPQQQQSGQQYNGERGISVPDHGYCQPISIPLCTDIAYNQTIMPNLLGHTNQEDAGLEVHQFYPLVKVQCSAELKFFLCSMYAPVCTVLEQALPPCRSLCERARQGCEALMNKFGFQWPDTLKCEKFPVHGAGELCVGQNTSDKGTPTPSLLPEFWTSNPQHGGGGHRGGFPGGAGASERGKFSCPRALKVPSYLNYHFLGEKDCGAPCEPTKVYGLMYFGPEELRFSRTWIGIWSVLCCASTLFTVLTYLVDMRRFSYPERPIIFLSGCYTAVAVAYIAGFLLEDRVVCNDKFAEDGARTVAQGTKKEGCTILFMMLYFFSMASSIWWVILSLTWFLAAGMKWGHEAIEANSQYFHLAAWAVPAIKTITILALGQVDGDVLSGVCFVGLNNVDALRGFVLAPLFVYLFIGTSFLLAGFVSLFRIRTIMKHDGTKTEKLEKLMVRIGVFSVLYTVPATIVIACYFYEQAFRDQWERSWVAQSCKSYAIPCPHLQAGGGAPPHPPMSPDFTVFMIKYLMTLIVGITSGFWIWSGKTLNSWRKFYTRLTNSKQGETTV", "assay": "FACS titration (MFI) on HEK293 cells transfected with full-length FZD and GFP", "method": "as §1, §2"}, "[4]": {"molecular_target": "T4, human FZD2 expressed on transfected HEK293 cells (human, UniProt Q14332 24-565)", "T4 construct": "See note of m11", "T4 sequence (Q14332 24-565 limits assumed)": "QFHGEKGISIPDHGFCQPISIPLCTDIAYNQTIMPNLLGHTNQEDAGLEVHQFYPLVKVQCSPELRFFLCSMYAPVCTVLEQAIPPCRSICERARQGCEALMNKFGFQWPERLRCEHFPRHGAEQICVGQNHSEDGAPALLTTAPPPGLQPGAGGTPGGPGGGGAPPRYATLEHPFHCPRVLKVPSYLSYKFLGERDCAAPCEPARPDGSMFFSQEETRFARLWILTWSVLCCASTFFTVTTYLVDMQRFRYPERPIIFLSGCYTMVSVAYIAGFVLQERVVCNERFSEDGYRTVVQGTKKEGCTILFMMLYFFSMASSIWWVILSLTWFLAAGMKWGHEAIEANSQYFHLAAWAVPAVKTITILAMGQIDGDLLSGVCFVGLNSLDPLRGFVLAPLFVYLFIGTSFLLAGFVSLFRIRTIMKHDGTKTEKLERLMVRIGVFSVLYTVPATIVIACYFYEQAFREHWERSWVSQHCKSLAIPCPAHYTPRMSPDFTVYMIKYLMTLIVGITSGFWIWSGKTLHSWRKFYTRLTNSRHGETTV", "assay": "FACS titration (MFI) on HEK293 cells transfected with full-length FZD and GFP", "method": "as §1, §2"}, "[5]": {"molecular_target": "T5, recombinant FZD2 Fc protein (Biacore) (Homo sapiens (Human), UniProt Q14332 24-250, limits assumed)", "T5 construct": "also called Fzd Fc; not shown: Fc part, not described", "T5 sequence (Q14332 24-250 limits assumed)": "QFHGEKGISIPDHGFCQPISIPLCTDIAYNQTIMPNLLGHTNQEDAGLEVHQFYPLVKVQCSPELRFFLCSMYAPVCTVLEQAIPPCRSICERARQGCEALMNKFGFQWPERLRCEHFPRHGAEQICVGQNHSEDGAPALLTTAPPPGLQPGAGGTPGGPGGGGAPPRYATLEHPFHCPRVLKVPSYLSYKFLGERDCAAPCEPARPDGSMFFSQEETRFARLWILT", "assay": "SPR, Biacore 2000; Fzd Fc immobilized on CM5 chip, IgG 100 to 0.78 nM in solution", "method": "(§3) The KDs of 18R8 and 18R5 antibodies were determined using the Biacore 2000 system from Biacore Lifescience (GE Healthcare). Specifically, purified anti-Fzd7 antibodies were serially diluted in 2-fold increments from 100 to 0.78 nM in HBS-P (0.01 M HEPES pH 7.4, 0.15 M NaCl, 0.005% v/v Surfactant P20). Each dilution was tested against recombinant Fzd Fc proteins immobilized onto a CM5 Biacore chip. The association and dissociation rates were measured and KD values determined using the Biaevaluation software program (Table 5, below)."}, "[6]": {"molecular_target": "T6, recombinant FZD7 Fc protein (Biacore) (Homo sapiens (Human), UniProt O75084 33-255, limits assumed)", "T6 construct": "also called Fzd Fc; not shown: Fc part, not described", "assay": "SPR, Biacore 2000; Fzd Fc immobilized on CM5 chip, IgG 100 to 0.78 nM in solution", "method": "as §3"}, "FZD5-Fc": {"molecular_target": "T7, FZD5-Fc (Homo sapiens (Human), UniProt Q13467 27-233, limits assumed)", "T7 construct": "also called recombinant FZD5 Fc protein; not shown: Fc part, not described", "T7 sequence": "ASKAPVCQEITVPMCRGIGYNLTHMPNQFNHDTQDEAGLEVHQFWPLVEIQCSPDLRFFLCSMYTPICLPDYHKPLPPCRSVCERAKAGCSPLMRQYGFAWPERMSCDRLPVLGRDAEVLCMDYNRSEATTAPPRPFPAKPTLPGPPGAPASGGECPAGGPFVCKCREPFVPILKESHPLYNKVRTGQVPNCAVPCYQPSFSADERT", "assay": "SPR, Biacore 2000; Fzd Fc immobilized on CM5 chip, IgG 100 to 0.78 nM in solution", "method": "as §3"}, "[7]": {"molecular_target": "T8, recombinant FZD1 Fc protein (Biacore) (Homo sapiens (Human), UniProt Q9UP38 70-321, limits assumed)", "T8 construct": "also called Fzd Fc; not shown: Fc part, not described", "T8 sequence (Q9UP38 70-321 limits assumed)": "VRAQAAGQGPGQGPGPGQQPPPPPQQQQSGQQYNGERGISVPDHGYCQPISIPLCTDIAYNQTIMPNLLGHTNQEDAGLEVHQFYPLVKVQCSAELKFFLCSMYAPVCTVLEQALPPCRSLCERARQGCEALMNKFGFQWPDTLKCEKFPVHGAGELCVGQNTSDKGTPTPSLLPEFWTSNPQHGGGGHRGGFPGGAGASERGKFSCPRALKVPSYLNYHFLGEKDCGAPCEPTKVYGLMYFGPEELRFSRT", "assay": "SPR, Biacore 2000; Fzd Fc immobilized on CM5 chip, IgG 100 to 0.78 nM in solution", "method": "as §3"}, "[8]": {"molecular_target": "T3, human FZD1 expressed on transfected …", "assay": "flow cytometry (MFI), antibody titration on HEK293 cells overexpressing the FZD", "method": "(§4) To measure antibody binding to FZD by flow cytometry HEK293 cells were co-transfected with FZD expression vectors and the transfection marker GFP. Twenty-four to forty-eight hours post-transfection, cells were collected in suspension and incubated on ice with anti-FZD antibodies (10 μg/ml unless otherwise indicated) or control IgG to detect background antibody binding. The cells were washed and primary antibodies detected with Fc domain-specific secondary antibodies conjugated to a fluorescent chromophore (e.g. phycoerythrin conjugated anti-human IgG). Labeled cells were then analyzed by flow cytometry to identify anti-FZD antibodies that specifically recognize cell surface expression of FZD protein. Monoclonal antibodies 18R5 and 18R8 recognized FZD on transfected cells. As shown in FIG. 1 and FIG. 2, both 18R8 and 18R5 bind to multiple FZD including FZD1, FZD2, FZD5, FZD7, and FZD8. To examine the relative ability of 18R8 and 18R5 to bind to each FZD protein, titration analysis was conducted wherein the amount of antibody in the binding reaction was varied (FIG. 2)."}, "[9]": {"molecular_target": "T4, human FZD2 expressed on transfected …", "assay": "flow cytometry (MFI), antibody titration on HEK293 cells overexpressing the FZD", "method": "as §4"}, "[10]": {"molecular_target": "T9, soluble FZD8-Fc containing the Fri domain (amino acids 1-157 of FZD8 linked in-frame to human IgG1 Fc) (human, UniProt Q9H461 28-157)", "T9 construct": "also called wild-type FZD8; not shown: human IgG1 Fc", "T9 sequence": "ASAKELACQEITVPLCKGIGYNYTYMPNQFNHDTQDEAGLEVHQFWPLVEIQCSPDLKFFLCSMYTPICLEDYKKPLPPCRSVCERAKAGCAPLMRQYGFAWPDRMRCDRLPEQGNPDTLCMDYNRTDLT", "assay": "phage ELISA on FZD8-Fc"}, "[11]": {"molecular_target": "T10, FZD8-Fc variant Mut2 (substitution at position 75 in the cleft) (human, UniProt Q9H461 28-157)", "T10 construct": "also called FZD8-Mut2; not shown: human IgG1 Fc", "T10 chain": "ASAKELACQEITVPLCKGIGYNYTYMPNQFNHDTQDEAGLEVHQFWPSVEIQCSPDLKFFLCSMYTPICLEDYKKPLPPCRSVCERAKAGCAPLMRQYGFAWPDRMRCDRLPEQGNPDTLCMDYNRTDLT", "assay": "phage ELISA on FZD8-Fc Mut2"}}}
{"binder": "18R5 IgG antibody (human IgG2, lambda) (antibody, V domains shown, also called OMP-18R5; 18R5 IgG2 antibody) VH: EVQLVESGGGLVQPGGSLRLSCAASGFTFSHYTLSWVRQAPGKGLEWVSVISGDGSYTYYADSVKGRFTISSDNSKNTLYLQMNSLRAEDTAVYYCARNFIKYVFANWGQGTLVTVSS VL: DIELTQPPSVSVAPGQTARISCSGDNIGSFYVHWYQQKPGQAPVLVIYDKSNRPSGIPERFSGSNSGNTATLTISGTQAEDEADYYCQSYANTLSLVFGGGTKLTVLG", "values": [{"measurement": "EC50", "setting": "[1]", "value": 1.1, "unit": "nM"}, {"measurement": "EC50", "setting": "[2]", "value": 0.58, "unit": "nM"}, {"measurement": "EC50", "setting": "[3]", "value": 0.41, "unit": "nM"}, {"measurement": "EC50", "setting": "[4]", "value": 0.62, "unit": "nM"}, {"measurement": "Kd", "setting": "[5]", "value": 3.3, "unit": "nM"}, {"measurement": "Kd", "setting": "[6]", "value": 1.8, "unit": "nM"}, {"measurement": "Kd", "setting": "FZD5-Fc", "value": 1.9, "unit": "nM"}, {"measurement": "Kd", "setting": "[7]", "value": 4.6, "unit": "nM"}, {"measurement": "EC50 (read off the curve)", "setting": "[8]", "value": "~0.2", "unit": "µg/mL"}, {"measurement": "EC50 (read off the curve)", "setting": "[9]", "value": "~0.2", "unit": "µg/mL"}]}
{"binder": "DTLSALIERGLM (Linear 12-mer from the Ph.D. phage display peptide library)", "note": "[FZD binding peptide clone #2 (DTLSALIERGLM)]", "values": [{"measurement": "binding result", "setting": "[10]", "value": "binds"}, {"measurement": "binding result", "setting": "[11]", "value": "no binding"}]}
{"binder": "DVWWLGSTWLKR (marked with an arrow)", "note": "[clone 28]", "values": [{"measurement": "binding result", "setting": "[11]", "value": "no binding"}]}
{"binder": "44R24 anti-FZD IgG antibody (antibody, V domains shown, also called anti-FZD5/8 44R24) VH: EVQLVESGGGLVQPGGSLRLSCAASGFTFSSYYITWVRQAPGKGLEWVSTISYSSSNTYYADSVKGRFTISRDNSKNTLYLQMNSLRAEDTAVYYCARSIVFDYWGQGTLVTVSS VL: DIELTQPPSVSVAPGQTARISCSGDALGNRYVYWYQQKPGQAPVLVIPSGIPERFSGSNSGNTATLTISGTQAEDEADYYCGSWDTRPYPKYVFGGGTKLTVLG", "values": [{"measurement": "EC50", "setting": "[1]", "value": 1.89, "unit": "nM"}]}
